The values below come from patent publication US7250505.

In test [1] the target is GST-mDab1 PTB domain fusion protein (mouse). Description: fluorescence polarization competition against the fluorescein-labeled APP peptide, 1.1 µM PTB domain. A general note: Polarisation of emitted light reports the rotation of a fluorescent probe.
Test [2] has the same target. Description: fluorescence polarization competition.
The target of another test is activated Src (Src527F) (UniProt P00523). The experiment in a line: co-immunoprecipitation with anti-Src from Rat-1 fibroblasts overexpressing both, immunoblot. For orientation: A western blot detects proteins with antibodies after separation by electrophoresis.
Test [3] concerns the target APP synthetic peptide containing the NPXY region (non-phosphorylated) (Mus musculus (Mouse)) (UniProt P12023). The experiment in a line: fluorescence polarization.
Test [4] concerns the target fluorescein-labeled APP peptide (Mus musculus (Mouse)) (UniProt P12023). The experiment in a line: fluorescence polarization, about 1 nM fluorescein-labeled APP peptide titrated with GST-PTB.
Test [5] has as its target APP peptide with isoleucine in place of Pro-2. The experiment in a line: substitution scan on a cellulose peptide array, radiolabeled GST-PTB.
Test [6] has as its target APP peptide with arginine in place of Pro-2. The test is described as above.
Test [7] addresses APP peptide with lysine in place of Pro-2. The description is as above.

Regarding “phosphorylated APP peptide (from UniProt P12023 754-770)”, the competitor concentration of equal effect in test [1] stood at 500 µM. Further, the fold reduction of affinity against the non-phosphorylated APP peptide in test [2] worked out at 250 fold.
Consider “mDab1 p80 (mDab555 product), tyrosine phosphorylated (from UniProt P97318 1-588)”, for which, in the test with activated Src (Src527F), the percent of the phosphorylated mDab1 of the total cell lysate immunoprecipitated with Src amounted to 1%.
On to “GST-mDab1 PTB domain fusion protein (from UniProt O75553 29-197)”, for which the Kd in test [3] was found to be 500 nM; in test [4], 550 nM. In addition, the percent binding against the wild-type APP peptide in test [5], in test [6] and in test [7] was 40% each time.
“APP synthetic peptide containing the NPXY region (non-phosphorylated) (from UniProt P12023 754-770)” displayed a competitor concentration of equal effect in test [1] of 2 µM.
